The text below walks through data of patent US20260226158A1.

For the test, the target named is human NKp46 on human NKp46-expressing CHO-K1 cells (human) (UniProt O76036). As to the kind of experiment: flow cytometry on human NKp46-expressing CHO-K1 cells, Alexa Fluor 647 anti-human IgG; upper row of the box.
Chain of human NKp46 on human NKp46-expressing CHO-K1 cells (human) (O76036 22-304): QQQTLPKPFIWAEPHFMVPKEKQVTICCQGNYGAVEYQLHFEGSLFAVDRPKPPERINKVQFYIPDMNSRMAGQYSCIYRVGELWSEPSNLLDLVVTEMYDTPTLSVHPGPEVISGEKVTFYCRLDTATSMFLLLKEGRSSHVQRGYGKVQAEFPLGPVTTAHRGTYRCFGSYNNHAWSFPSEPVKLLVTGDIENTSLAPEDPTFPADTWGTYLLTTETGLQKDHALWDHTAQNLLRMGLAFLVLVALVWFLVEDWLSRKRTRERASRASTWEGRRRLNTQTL

As for Human IgG (antibody), the Geometric Mean : Alexa Fluor 647-H was 206.
